Experimental data from patent US9187567 (PARKINSON S INSTITUTE, dated 2015).

How the values were obtained:
Experiment in all cases: 14-3-3 overlay (far-western) assay
[1] = target: T1, GFP tagged, full length LRRK2 I2020T (human, UniProt Q5S007 1-2527)
T1 construct: mature; also called 12020T (so in the source); not shown: GFP tag, amino-terminal

[2] = target: T2, GFP tagged, full length LRRK2 Ser935Ala (human, UniProt Q5S007 1-2527)
T2 construct: mature; also called S935A; not shown: GFP tag, amino-terminal
T2 sequence (Q5S007 whole entry S935A): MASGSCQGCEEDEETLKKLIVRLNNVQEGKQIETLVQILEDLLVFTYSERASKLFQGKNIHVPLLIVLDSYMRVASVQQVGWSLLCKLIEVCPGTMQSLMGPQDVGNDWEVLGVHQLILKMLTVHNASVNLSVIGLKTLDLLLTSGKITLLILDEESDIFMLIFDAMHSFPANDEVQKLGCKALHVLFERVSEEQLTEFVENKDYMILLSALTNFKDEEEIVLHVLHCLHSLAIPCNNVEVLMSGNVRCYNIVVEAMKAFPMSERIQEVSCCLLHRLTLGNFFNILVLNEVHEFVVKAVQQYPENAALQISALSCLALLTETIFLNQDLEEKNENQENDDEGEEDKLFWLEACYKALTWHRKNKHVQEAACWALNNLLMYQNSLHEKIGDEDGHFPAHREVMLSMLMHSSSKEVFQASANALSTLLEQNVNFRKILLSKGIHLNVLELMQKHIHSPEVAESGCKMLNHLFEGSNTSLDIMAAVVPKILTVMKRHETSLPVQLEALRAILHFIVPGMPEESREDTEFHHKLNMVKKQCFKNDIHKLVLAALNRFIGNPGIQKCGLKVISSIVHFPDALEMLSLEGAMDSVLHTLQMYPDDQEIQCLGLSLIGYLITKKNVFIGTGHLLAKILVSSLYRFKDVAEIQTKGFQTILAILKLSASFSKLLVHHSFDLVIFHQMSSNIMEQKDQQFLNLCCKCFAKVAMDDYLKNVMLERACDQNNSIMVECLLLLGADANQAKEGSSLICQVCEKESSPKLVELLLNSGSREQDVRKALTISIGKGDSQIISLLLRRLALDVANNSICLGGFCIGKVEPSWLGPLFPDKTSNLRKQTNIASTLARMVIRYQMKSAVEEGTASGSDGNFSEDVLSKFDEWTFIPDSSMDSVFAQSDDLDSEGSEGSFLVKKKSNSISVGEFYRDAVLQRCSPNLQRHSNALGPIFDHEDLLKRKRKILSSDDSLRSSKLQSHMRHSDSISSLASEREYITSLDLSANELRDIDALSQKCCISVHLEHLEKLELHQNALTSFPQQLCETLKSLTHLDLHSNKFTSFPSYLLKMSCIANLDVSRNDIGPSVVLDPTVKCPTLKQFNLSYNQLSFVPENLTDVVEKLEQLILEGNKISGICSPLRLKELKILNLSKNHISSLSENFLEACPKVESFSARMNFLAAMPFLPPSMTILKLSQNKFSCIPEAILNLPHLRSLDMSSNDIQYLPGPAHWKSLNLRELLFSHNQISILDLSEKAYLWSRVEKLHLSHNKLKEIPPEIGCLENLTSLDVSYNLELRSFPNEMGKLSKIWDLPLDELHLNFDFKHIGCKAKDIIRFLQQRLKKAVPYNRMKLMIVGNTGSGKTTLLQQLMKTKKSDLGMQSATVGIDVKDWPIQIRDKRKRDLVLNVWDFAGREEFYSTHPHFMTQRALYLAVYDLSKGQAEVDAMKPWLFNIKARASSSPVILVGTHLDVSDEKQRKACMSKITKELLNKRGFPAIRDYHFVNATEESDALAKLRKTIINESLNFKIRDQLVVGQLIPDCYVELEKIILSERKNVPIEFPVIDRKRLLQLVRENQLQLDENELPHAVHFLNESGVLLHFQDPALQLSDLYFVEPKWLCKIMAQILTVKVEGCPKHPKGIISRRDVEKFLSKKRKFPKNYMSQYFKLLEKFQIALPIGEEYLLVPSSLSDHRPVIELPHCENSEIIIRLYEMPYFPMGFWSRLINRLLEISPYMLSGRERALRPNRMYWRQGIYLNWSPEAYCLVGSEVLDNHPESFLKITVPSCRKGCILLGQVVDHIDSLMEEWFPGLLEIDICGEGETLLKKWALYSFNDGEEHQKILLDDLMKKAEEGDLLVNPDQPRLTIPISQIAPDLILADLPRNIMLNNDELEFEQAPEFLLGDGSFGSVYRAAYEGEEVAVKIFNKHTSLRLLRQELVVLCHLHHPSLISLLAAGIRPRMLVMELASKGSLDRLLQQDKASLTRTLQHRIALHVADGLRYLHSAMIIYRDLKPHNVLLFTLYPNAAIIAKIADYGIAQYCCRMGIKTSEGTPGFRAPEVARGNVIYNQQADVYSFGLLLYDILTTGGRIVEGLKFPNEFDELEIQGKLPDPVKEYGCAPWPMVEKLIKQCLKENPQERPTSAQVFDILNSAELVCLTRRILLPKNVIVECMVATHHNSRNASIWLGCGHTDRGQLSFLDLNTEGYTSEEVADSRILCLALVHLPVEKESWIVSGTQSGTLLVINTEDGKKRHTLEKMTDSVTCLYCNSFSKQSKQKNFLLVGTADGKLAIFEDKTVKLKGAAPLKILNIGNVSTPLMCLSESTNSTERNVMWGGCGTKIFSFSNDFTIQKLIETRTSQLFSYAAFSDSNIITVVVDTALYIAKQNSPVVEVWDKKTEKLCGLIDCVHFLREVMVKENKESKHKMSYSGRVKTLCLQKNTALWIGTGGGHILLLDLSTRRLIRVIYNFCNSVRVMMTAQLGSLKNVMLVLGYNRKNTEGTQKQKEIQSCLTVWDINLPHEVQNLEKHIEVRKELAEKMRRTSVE

[3] = target: T3, GFP tagged, full length LRRK2 Ser910Ala (human, UniProt Q5S007 1-2527)
T3 construct: mature; also called S910A; not shown: GFP tag, amino-terminal
T3 sequence (Q5S007 whole entry S910A): as the sequence (Q5S007 whole entry S935A) above, with S910A, A935S counted along it

[4] = target: T4, GFP tagged, full length LRRK2 Ser955Ala (human, UniProt Q5S007 1-2527)
T4 construct: mature; also called S955A; GFP-LRRK2-S955A; not shown: GFP tag, amino-terminal
T4 sequence (Q5S007 whole entry S955A): as the sequence (Q5S007 whole entry S935A) above, with A935S, S955A counted along it

[5] = target: T5, GFP tagged, full length LRRK2 Ser973Ala (human, UniProt Q5S007 1-2527)
T5 construct: mature; also called S973A; GFP-LRRK2-S973A; not shown: GFP tag, amino-terminal
T5 sequence (Q5S007 whole entry S973A): as the sequence (Q5S007 whole entry S935A) above, with A935S, S973A counted along it

[6] = target: T6, GFP tagged, full length LRRK2 from cells treated with 1 µM LRRK2-IN1 for 90 minutes (human, UniProt Q5S007 1-2527, Serines 910, 935, 955 and 973 dephosphorylated by LRRK2-IN1 treatment of the cells)
T6 construct: mature; Same polypeptide as m10; It differs only in phosphorylation state; also called LRRK2-IN1 treated LRRK2; not shown: GFP tag, amino-terminal
T6 sequence (Q5S007 whole entry): as the sequence (Q5S007 whole entry S935A) above, with A935S counted along it

T1 sequence (Q5S007 whole entry I2020T): as the sequence (Q5S007 whole entry S935A) above, with A935S, I2020T counted along it

- binding result [1]: no binding
- binding result [2]: no binding
- binding result [3]: no binding
- binding result [4]: binds
- binding result [5]: binds
- binding result [6]: binds
B1: LiCOR Dyelight labelled 14-3-3 protein (recombinant, His tagged BMH1) (other, UniProt P29311 1-267, looked up)
chain: MSTSREDSVYLAKLAEQAERYEEMVENMKTVASSGQELSVEERNLLSVAYKNVIGARRASWRIVSSIEQKEESKEKSEHQVELICSYRSKIETELTKISDDILSVLDSHLIPSATTGESKVFYYKMKGDYHRYLAEFSSGDAREKATNASLEAYKTASEIATTELPPTHPIRLGLALNFSVFYYEIQNSPDKACHLAKQAFDDAIAELDTLSEESYKDSTLIMQLLRDNLTLWTSDMSESGQAEDQQQQQQHQQQQPPAAAEGEAPK
modifications: fluorescent dye label (LiCOR Dyelight)
notes: also called fluorescent dye labeled recombinant 14-3-3; not shown: His tag
